{
  "source": "paper PMC3892959",
  "data": [
    {"target": "T1, rhVEGF165 (recombinant human vascular endothelial growth factor 165) (human, UniProt P15692-4 27-191)", "assay": "affinity capillary electrophoresis", "units": {"Kd": "nM"}, "values": [
      {"binder": "CCTTGTCATGATAGCTATGTTTCAGCCAACCATACCCGCT (ssDNA)", "note": "[R 3]", "Kd": 22},
      {"binder": "ATTCTGGGGAGTGGTACGTAAGCAGTGCCACCACGGTTAT (ssDNA)", "note": "[R 2]", "Kd": 72},
      {"binder": "TGGCTGTTATTTCTCTCGGCCTCAGATCTTGGGCCCAACA (ssDNA)", "note": "[C 3]", "Kd": 66},
      {"binder": "GTCTGTACCAATCTAAAAGTGTATATTATATCTACGAGCCT (ssDNA)", "note": "[R 1]", "Kd": 53},
      {"binder": "CGAGGATATCCGATTGTGGGTGACGTATTGGACACCTTCCCG (ssDNA)", "note": "[C 2]", "Kd": 21},
      {"binder": "GGAAGCCCGCTGTGACATCTGGAGCCGGTTCCCGAGCCA (ssDNA)", "note": "[C 1]", "Kd": 49}
    ]},
    {"target": "T1, rhVEGF165 (recombinant human vascular …)", "assay": "fluorescence polarization", "units": {"Kd": "nM"}, "values": [
      {"binder": "CCTTGTCATGATAGCTATGTTTCAGCCAACCATACCCGCT (ssDNA)", "note": "[R 3]", "Kd": 46},
      {"binder": "ATTCTGGGGAGTGGTACGTAAGCAGTGCCACCACGGTTAT (ssDNA)", "note": "[R 2]", "Kd": 88},
      {"binder": "TGGCTGTTATTTCTCTCGGCCTCAGATCTTGGGCCCAACA (ssDNA)", "note": "[C 3]", "Kd": 164},
      {"binder": "GTCTGTACCAATCTAAAAGTGTATATTATATCTACGAGCCT (ssDNA)", "note": "[R 1]", "Kd": 100},
      {"binder": "CGAGGATATCCGATTGTGGGTGACGTATTGGACACCTTCCCG (ssDNA)", "note": "[C 2]", "Kd": 162},
      {"binder": "GGAAGCCCGCTGTGACATCTGGAGCCGGTTCCCGAGCCA (ssDNA)", "note": "[C 1]", "Kd": 101}
    ]}
  ]
}
